# Assay results published in PMC4761948 (2016).
# T1: GST-GCM1 (Homo sapiens (Human), UniProt Q9NP62)
# T1 chain: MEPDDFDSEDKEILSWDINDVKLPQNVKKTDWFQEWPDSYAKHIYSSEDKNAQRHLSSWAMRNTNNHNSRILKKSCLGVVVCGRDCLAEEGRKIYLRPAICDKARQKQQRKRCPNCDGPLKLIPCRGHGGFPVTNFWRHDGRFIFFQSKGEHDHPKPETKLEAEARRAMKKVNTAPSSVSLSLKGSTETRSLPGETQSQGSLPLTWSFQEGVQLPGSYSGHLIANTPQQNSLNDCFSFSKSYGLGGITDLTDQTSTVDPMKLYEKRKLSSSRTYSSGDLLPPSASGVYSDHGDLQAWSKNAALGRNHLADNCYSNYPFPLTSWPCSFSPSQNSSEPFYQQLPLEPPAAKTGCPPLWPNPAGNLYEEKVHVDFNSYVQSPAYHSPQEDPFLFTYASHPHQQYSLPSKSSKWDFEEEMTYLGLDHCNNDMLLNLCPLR
# B1: GATA3-FLAG (protein)
# chain: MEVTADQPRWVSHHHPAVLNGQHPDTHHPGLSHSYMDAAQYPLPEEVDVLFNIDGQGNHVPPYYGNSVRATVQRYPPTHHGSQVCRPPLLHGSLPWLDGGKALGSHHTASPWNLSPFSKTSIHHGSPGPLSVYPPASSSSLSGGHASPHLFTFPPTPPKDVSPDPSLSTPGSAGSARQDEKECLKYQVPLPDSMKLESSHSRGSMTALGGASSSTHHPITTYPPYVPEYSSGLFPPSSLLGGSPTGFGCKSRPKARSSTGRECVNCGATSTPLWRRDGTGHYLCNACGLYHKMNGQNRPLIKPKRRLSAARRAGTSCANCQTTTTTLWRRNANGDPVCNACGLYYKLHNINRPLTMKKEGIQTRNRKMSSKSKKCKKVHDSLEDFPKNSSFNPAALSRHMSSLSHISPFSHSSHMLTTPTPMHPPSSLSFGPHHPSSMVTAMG
# Molecular target: T1, GST-GCM1
# Assay: GST pull-down
binder,measurement,value
B1,binding result,binds
